Results published in FireProtDB (doi:10.1021/bi048926x).
“And” between values parts separate entries of the source, which are not always exact repeats. Identical values can stand only once.

B1: Azurin, P00282 (parent)
chain: MLRKLAAVSLLSLLSAPLLAAECSVDIQGNDQMQFNTNAITVDKSCKQFTVNLSHPGNLPKNVMGHNWVLSTAADMQGVVTDGMASGLDKDYLKPDDSRVIAHTKLIGSGEKDSVTFDVSKLKEGEQYMFFCTFPGHSALMKGTLTLK

Variants of: B1
Conditions: Pseudomonas aeruginosa (strain ATCC 15692 / DSM 22644 / CIP 104116 / JCM 14847 / LMG 12228 / 1C / PRS 101 / PAO1), pH 7, Thermal, reversible: No, structure 5AZU, whole UniProt chain shown
[1] = DSC, Potassium phosphate 100 mM

Variant	Tm (Absorbance, Phosphate 10 mM) [°C]	change of melting temperature, mutant - wild type (higher = more stable) (Absorbance, Phosphate 10 mM) [°C]	change of melting temperature, mutant - wild type (higher = more stable) [1]	unfolding enthalpy (calorimetric) [1]
D43E K148R K44R	75	-3	-1.2 °C and -0.9 °C and -1.1 °C	–
D82C K94C	78	0	–	–
K44R	76	-2	0.8 °C and 0.6 °C and 1 °C	124 kcal/mol and 150 kcal/mol and 75.5 kcal/mol
D43E K148R	74	-4	–	89.2 kcal/mol and 108 kcal/mol and 122 kcal/mol
